In patent publication US7557181B2, “Pan-HER antagonists and methods of use” (Molecular Logix, Inc., priority 2005, dated 2009):
Changes are numbered by the printed parent chain. One block for each molecule: values may come before it.

Key:
Type in all cases: cell-based
[1] = system: MCF-7 cells (human breast cancer cell line that express HER2 and HER3); assay: MCF-7 cell proliferation stimulation assay (WST-1); conditions: serum-free, 72 hours, FIG. 4
Experimental: MCF-7 cells were obtained from the American Type Culture Collection (ATCC). Stock cultures of MCF-7 were maintained in Eagle's MEM supplemented with 1% ITS-X (Invitrogen) and 10% fetal bovine serum. For proliferation assays, MCF-7 cells were transferred to serum-free medium (SFM) for 24 hours and then trypsinized and suspended at 1E5 cells/mL in SFM. Fifty microliters of cell suspension (5000 cells) were plated per well in 96 well microtiter plates. Serial dilutions of HER ligands or mutant proteins were prepared at twice the final concentration in SFM and 50 ul was added to wells, bringing the final volume to 100 ul at the desired final concentration. Plates were incubated for 72 hours at 37 C in a humidified 5% CO2 atmosphere. Cell proliferation was determined by addition of 10 ul/well of WST-1 Cell Proliferation Reagent (Roche Applied Sciences, Indianapolis, Ind.) for the last three hours of the proliferation period.

EGFR = target: T1, EGFR (Homo sapiens, UniProt P00533); assay: Autophosphorylation of EGFR in A431 cells; conditions: epithelial cancer cell line, FIG. 2
T1 construct: Autophosphorylation of EGFR in A431 cells, an epithelial cancer cell line; endogenous in cells; host or cells: A431 cells

[2] = system: HER5 cells (mouse fibroblast cells that overexpress human EGFR); assay: HER5 cell proliferation stimulation assay (WST-1); conditions: serum-free, 48 hour proliferation period, FIG. 3
Experimental: Hung (MD Anderson Cancer Center). Stock cultures of HER5 were propagated in D-MEM/F12 medium containing 10% fetal bovine serum, 100 units/ml of penicillin and 100 ug/ml of streptomycin in a water-jacketed incubator at 37° C. in a humidified 5% CO2 atmosphere. For HER5 proliferation assays, the cells were changed into DMEM/F12 without serum for 24 hours. Cells were then trypsinized and suspended at 1E5 cells/ml. […] Fifty microliters of cell suspension (5000 cells) were added to appropriate wells bringing the total volume to 100 ul at the desired concentrations. Plates were incubated for a 48 hour proliferation period. Cell proliferation was determined by addition of 10 ul/well of WST-1 Cell Proliferation Reagent (Roche Applied Sciences, Indianapolis, Ind.) for the last three hours of the proliferation period. WST-1 is a tetrazolium salt that is cleaved to formazan dye by mitochondrial dehydrogenases in viable cells. The amount of formazan was measured at 450 nm using a microplate reader (Dynex Technologies) with MRX Revelation software.

B1: heregulin (protein)
chain: SHLVKCAEKEKTFCVNGGECFMVKDLSNPSRYLCKCPNEFTGDRCQNYVMASFYKHLGIEFMEAEELY
stimulation of MCF-7 cells (proliferation) [1]: can be stimulated

stimulation of autophosphorylation of EGFR (EGFR): stimulated
B2: BiRegulin: chimeric EGF homolog, amino terminal residues (NSDSE) of EGF replaced with corresponding residues of HRGβ1 (SHLVK) (protein)
chain: HHHHHHIEGRSHLVKCPLSHDGYCLHDGVCMYIEALDKYACNCVVGYIGERCQYRDLKWWELR
stimulation of HER5 cells (proliferation) [2]: can be stimulated | stimulation of MCF-7 cells (proliferation) [1]: can be stimulated

stimulation of autophosphorylation of EGFR (EGFR): does not stimulate autophosphorylation
B3: BiRV35EG39L: BiRegulin with glycine 39 replaced by leucine and valine 35 replaced with glutamate (protein)
chain: B2 chain with V45E, G49L
stimulation of HER5 cells (proliferation) [2]: Neither cell line is stimulated | stimulation of MCF-7 cells (proliferation) [1]: Neither cell line is stimulated
